Experimental data as given in article PMC6391106.

Target: WT murine C3b (mouse) (UniProt P01027)
Assay: SPR; BIAcore S200; murine C3b (WT or Asn1115) amine coupled to a CM5 chip (930 ± 10 RU); analytes in 2-fold dilution series in HBST (10 mM HEPES, 150 mM NaCl, 0.005% Tween-20, pH 7.4), 30 μl/min for 200 s; steady-state model

Sequence of full-length mouse serum-derived FH (P06909 19-1234): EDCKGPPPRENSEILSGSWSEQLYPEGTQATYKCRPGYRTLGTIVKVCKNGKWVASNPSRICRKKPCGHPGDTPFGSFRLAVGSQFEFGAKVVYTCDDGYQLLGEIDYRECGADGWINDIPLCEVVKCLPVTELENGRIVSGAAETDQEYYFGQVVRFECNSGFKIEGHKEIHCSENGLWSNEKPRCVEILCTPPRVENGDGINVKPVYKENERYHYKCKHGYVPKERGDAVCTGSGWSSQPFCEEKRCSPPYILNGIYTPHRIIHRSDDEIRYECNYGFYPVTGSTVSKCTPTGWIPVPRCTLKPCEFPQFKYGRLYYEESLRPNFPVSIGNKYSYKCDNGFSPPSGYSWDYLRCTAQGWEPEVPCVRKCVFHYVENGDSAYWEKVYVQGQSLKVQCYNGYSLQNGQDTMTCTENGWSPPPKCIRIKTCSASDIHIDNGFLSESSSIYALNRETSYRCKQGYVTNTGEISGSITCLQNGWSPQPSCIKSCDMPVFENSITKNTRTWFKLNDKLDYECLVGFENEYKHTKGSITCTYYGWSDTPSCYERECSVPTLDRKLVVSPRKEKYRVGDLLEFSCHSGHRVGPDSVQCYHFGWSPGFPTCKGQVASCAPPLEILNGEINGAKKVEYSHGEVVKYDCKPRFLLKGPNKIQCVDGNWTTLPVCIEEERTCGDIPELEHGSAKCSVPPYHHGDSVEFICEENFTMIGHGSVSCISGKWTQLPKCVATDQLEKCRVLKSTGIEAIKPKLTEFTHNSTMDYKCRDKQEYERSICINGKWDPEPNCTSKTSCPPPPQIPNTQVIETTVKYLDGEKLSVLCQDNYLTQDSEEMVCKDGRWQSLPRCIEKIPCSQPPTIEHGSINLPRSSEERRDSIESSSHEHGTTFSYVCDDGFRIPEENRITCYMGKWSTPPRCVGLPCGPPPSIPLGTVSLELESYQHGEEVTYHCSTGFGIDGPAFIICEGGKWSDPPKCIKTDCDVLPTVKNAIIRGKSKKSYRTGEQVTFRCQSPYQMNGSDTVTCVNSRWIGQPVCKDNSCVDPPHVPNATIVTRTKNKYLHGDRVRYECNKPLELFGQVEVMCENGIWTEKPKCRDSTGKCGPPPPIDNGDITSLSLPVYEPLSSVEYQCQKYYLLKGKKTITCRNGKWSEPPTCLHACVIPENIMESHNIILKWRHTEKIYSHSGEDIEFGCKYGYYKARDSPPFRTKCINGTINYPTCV

Substance	Kd [µM]
recombinant murine Crry SCRs 1–5 (domain or fragment)	3.2
full-length mouse serum-derived FH (from UniProt P06909 19-1234) (natural protein)	1.4
recombinant murine FH SCRs 1–5 (domain or fragment)	2.9
recombinant human FH SCRs 19–20 (domain or fragment)	9.4
